T1: soluble human FcγRIIb (human, UniProt P31994 43-217, limits assumed)
T1 construct: soluble His-tagged form; also called hFcγRIIb
T1 sequence (looked up): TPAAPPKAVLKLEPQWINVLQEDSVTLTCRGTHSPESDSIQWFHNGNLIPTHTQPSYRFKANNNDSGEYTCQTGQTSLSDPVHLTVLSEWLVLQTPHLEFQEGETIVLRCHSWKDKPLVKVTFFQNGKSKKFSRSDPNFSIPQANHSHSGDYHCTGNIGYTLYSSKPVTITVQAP

B1: Ab1H-P920/Ab1L (antibody, human IgG1, kappa, name in EU numbering)
heavy: QVQLVESGGGLVQPGGSLRLSCAASGFTLSNHDMTWVRQAPGKGLEYVSIINTYGNHWYANWASGRFTISRDNSKNTVYLQIDSLRAEDTATYYCARETHHGSSGIDHWGQGTLVTVSSASTKGPSVFPLAPSSKSTSGGTAALGCLVKDYFPEPVTVSWNSGALTSGVHTFPAVLQSSGLYSLSSVVTVPSSSLGTQTYICNVNHKPSNTKVDKKVEPKSCDKTHTCPPCPAPELLGGDSVFLFPPKPKDTLMISRTPEVTCVVVDVSHEDPEVKFNWYVDGVEVHNAKTKPREEQYNATYRVVSVLTVLHQDWLNGKEYKCKVSNKALPRPIEKTISKAKGQPREPQVYTLPPSREEMTKNQVSLTCLVKGFYPSDIAVEWESNGQPENNYKTTPPVLDSDGSFFLYSKLTVDKSRWQQGNVFSCSVMHEALHNHYTQKSLSLSP
light: DIQMTQSPSSVSASVGDRVTITCQASESIYSGLAWYQQKPGQPPKLLIYDHSTLASGVPSRFSGSGSGTEYALTISSLQPEDFATYYCQHADYAHHSDNVFGGGTKVEIKRTVAAPSVFIFPPSDEQLKSGTASVVCLLNNFYPREAKVQWKVDNALQSGNSQESVTEQDSKDSTYSLSSTLTLSKADYEKHKVYACEVTHQGLSSPVTKSFNRGEC
notes: copies: 2 + 2
B2: Ab1H-P923/Ab1L (antibody, human IgG1, kappa, name in EU numbering)
heavy: QVQLVESGGGLVQPGGSLRLSCAASGFTLSNHDMTWVRQAPGKGLEYVSIINTYGNHWYANWASGRFTISRDNSKNTVYLQIDSLRAEDTATYYCARETHHGSSGIDHWGQGTLVTVSSASTKGPSVFPLAPSSKSTSGGTAALGCLVKDYFPEPVTVSWNSGALTSGVHTFPAVLQSSGLYSLSSVVTVPSSSLGTQTYICNVNHKPSNTKVDKKVEPKSCDKTHTCPPCPAPELLGGDSVFLFPPKPKDTLMISRTPEVTCVVVDVSHEDPEVKFNWYVDGVEVHNAKTKPREEQYNATYRVVSVLTVLHRDWLNGKEYKCKVSNKALPAPIEKTISKAKGQPREPQVYTLPPSREEMTKNQVSLTCLVKGFYPSDIAVEWESNGQPENNYKTTPPVLDSDGSFFLYSKLTVDKSRWQQGNVFSCSVMHEALHNHYTQKSLSLSP
light: DIQMTQSPSSVSASVGDRVTITCQASESIYSGLAWYQQKPGQPPKLLIYDHSTLASGVPSRFSGSGSGTEYALTISSLQPEDFATYYCQHADYAHHSDNVFGGGTKVEIKRTVAAPSVFIFPPSDEQLKSGTASVVCLLNNFYPREAKVQWKVDNALQSGNSQESVTEQDSKDSTYSLSSTLTLSKADYEKHKVYACEVTHQGLSSPVTKSFNRGEC
notes: copies: 2 + 2
B3: Ab1H-P925/Ab1L (antibody, human IgG1, kappa, name in EU numbering)
heavy: QVQLVESGGGLVQPGGSLRLSCAASGFTLSNHDMTWVRQAPGKGLEYVSIINTYGNHWYANWASGRFTISRDNSKNTVYLQIDSLRAEDTATYYCARETHHGSSGIDHWGQGTLVTVSSASTKGPSVFPLAPSSKSTSGGTAALGCLVKDYFPEPVTVSWNSGALTSGVHTFPAVLQSSGLYSLSSVVTVPSSSLGTQTYICNVNHKPSNTKVDKKVEPKSCDKTHTCPPCPAPELLGGDSVFLFPPKPKDTLMISRTPEVTCVVVDVSHEDPEVKFNWYVDGVEVHNAKTKPREEQRNATYRVVSVLTVLHQDWLNGKEYKCKVSNKALPAPIEKTISKAKGQPREPQVYTLPPSREEMTKNQVSLTCLVKGFYPSDIAVEWESNGQPENNYKTTPPVLDSDGSFFLYSKLTVDKSRWQQGNVFSCSVMHEALHNHYTQKSLSLSP
light: DIQMTQSPSSVSASVGDRVTITCQASESIYSGLAWYQQKPGQPPKLLIYDHSTLASGVPSRFSGSGSGTEYALTISSLQPEDFATYYCQHADYAHHSDNVFGGGTKVEIKRTVAAPSVFIFPPSDEQLKSGTASVVCLLNNFYPREAKVQWKVDNALQSGNSQESVTEQDSKDSTYSLSSTLTLSKADYEKHKVYACEVTHQGLSSPVTKSFNRGEC
notes: copies: 2 + 2
B4: Ab1H-P926/Ab1L (antibody, human IgG1, kappa, name in EU numbering)
heavy: QVQLVESGGGLVQPGGSLRLSCAASGFTLSNHDMTWVRQAPGKGLEYVSIINTYGNHWYANWASGRFTISRDNSKNTVYLQIDSLRAEDTATYYCARETHHGSSGIDHWGQGTLVTVSSASTKGPSVFPLAPSSKSTSGGTAALGCLVKDYFPEPVTVSWNSGALTSGVHTFPAVLQSSGLYSLSSVVTVPSSSLGTQTYICNVNHKPSNTKVDKKVEPKSCDKTHTCPPCPAPELLGGDSVFLFPPKPKDTLMISRTPEVTCVVVDVSHEDPEVKFNWYVDGVEVHNAKTKPREERYNATYRVVSVLTVLHQDWLNGKEYKCKVSNKALPAPIEKTISKAKGQPREPQVYTLPPSREEMTKNQVSLTCLVKGFYPSDIAVEWESNGQPENNYKTTPPVLDSDGSFFLYSKLTVDKSRWQQGNVFSCSVMHEALHNHYTQKSLSLSP
light: DIQMTQSPSSVSASVGDRVTITCQASESIYSGLAWYQQKPGQPPKLLIYDHSTLASGVPSRFSGSGSGTEYALTISSLQPEDFATYYCQHADYAHHSDNVFGGGTKVEIKRTVAAPSVFIFPPSDEQLKSGTASVVCLLNNFYPREAKVQWKVDNALQSGNSQESVTEQDSKDSTYSLSSTLTLSKADYEKHKVYACEVTHQGLSSPVTKSFNRGEC
notes: copies: 2 + 2
B5: Ab1H-P921/Ab1L (antibody, human IgG1, kappa, name in EU numbering)
heavy: QVQLVESGGGLVQPGGSLRLSCAASGFTLSNHDMTWVRQAPGKGLEYVSIINTYGNHWYANWASGRFTISRDNSKNTVYLQIDSLRAEDTATYYCARETHHGSSGIDHWGQGTLVTVSSASTKGPSVFPLAPSSKSTSGGTAALGCLVKDYFPEPVTVSWNSGALTSGVHTFPAVLQSSGLYSLSSVVTVPSSSLGTQTYICNVNHKPSNTKVDKKVEPKSCDKTHTCPPCPAPELLGGDSVFLFPPKPKDTLMISRTPEVTCVVVDVSHEDPEVKFNWYVDGVEVHNAKTKPREEQYNATYRVVSVLTVLHQDWLNGKEYKCKVSNKALPARIEKTISKAKGQPREPQVYTLPPSREEMTKNQVSLTCLVKGFYPSDIAVEWESNGQPENNYKTTPPVLDSDGSFFLYSKLTVDKSRWQQGNVFSCSVMHEALHNHYTQKSLSLSP
light: DIQMTQSPSSVSASVGDRVTITCQASESIYSGLAWYQQKPGQPPKLLIYDHSTLASGVPSRFSGSGSGTEYALTISSLQPEDFATYYCQHADYAHHSDNVFGGGTKVEIKRTVAAPSVFIFPPSDEQLKSGTASVVCLLNNFYPREAKVQWKVDNALQSGNSQESVTEQDSKDSTYSLSSTLTLSKADYEKHKVYACEVTHQGLSSPVTKSFNRGEC
notes: copies: 2 + 2
B6: Ab1H-P924/Ab1L (antibody, human IgG1, kappa, name in EU numbering)
heavy: QVQLVESGGGLVQPGGSLRLSCAASGFTLSNHDMTWVRQAPGKGLEYVSIINTYGNHWYANWASGRFTISRDNSKNTVYLQIDSLRAEDTATYYCARETHHGSSGIDHWGQGTLVTVSSASTKGPSVFPLAPSSKSTSGGTAALGCLVKDYFPEPVTVSWNSGALTSGVHTFPAVLQSSGLYSLSSVVTVPSSSLGTQTYICNVNHKPSNTKVDKKVEPKSCDKTHTCPPCPAPELLGGDSVFLFPPKPKDTLMISRTPEVTCVVVDVSHEDPEVKFNWYVDGVEVHNAKTKPREEQYNATYRVVSVLTVLHQDWLRGKEYKCKVSNKALPAPIEKTISKAKGQPREPQVYTLPPSREEMTKNQVSLTCLVKGFYPSDIAVEWESNGQPENNYKTTPPVLDSDGSFFLYSKLTVDKSRWQQGNVFSCSVMHEALHNHYTQKSLSLSP
light: DIQMTQSPSSVSASVGDRVTITCQASESIYSGLAWYQQKPGQPPKLLIYDHSTLASGVPSRFSGSGSGTEYALTISSLQPEDFATYYCQHADYAHHSDNVFGGGTKVEIKRTVAAPSVFIFPPSDEQLKSGTASVVCLLNNFYPREAKVQWKVDNALQSGNSQESVTEQDSKDSTYSLSSTLTLSKADYEKHKVYACEVTHQGLSSPVTKSFNRGEC
notes: copies: 2 + 2

The binders below were run against T1, soluble human FcγRIIb (assay: SPR, Ab-IgE complex over captured hFcγRIIb, pH 7.4, 25C).
Protocol: Fc region variant-containing antibody binding assays between soluble human FcγRIIb (a.k.a. “hFcγRIIb”) and antigen-antibody complexes were performed using BIACORE® T200 (GE Healthcare). Soluble hFcγRIIb was produced in the form of a His-tagged molecule using methods known in the art. An appropriate amount of an anti-His antibody was fixed onto Sensor chip CM5 (GE Healthcare) by the amine coupling method using a His capture kit (GE Healthcare) to capture hFcγRIIb. Next, an antibody-antigen complex and a running buffer (as a reference solution) was injected, and interaction was allowed to take place with the hFcγRIIb captured onto the sensor chip. 20 mM N-(2-Acetamido)-2-aminoethanesulfonic acid, 150 mM NaCl, 1.2 mM CaCl₂, and 0.05% (w/v) Tween 20 at pH 7.4 was used as the running buffer, and the respective buffer was also used to dilute the soluble hFcγRIIb. To regenerate the sensor chip, 10 mM glycine-HCl at pH 1.5 was used. All measurements were carried out at 25° C. Analyses were performed based on binding (RU) calculated from sensorgrains obtained by the measurements, and relative values when the binding amount of P600 was defined as 1.00 are shown. To calculate the parameters, the BIACORE® T100 Evaluation Software (GE Healthcare) was used.

Going from B1 to B2, the “relative binding (RU), P600=1.00” value rises from 0.01 fold to 1.63 fold.

Compared with B3, B4 is lower in “relative binding (RU), P600=1.00” value: -0.05 fold for the first, -0.06 fold for the second.

Compared with B5, B6 is higher in “relative binding (RU), P600=1.00” value: -0.07 fold for the first, 2.08 fold for the second.
